Here are results for one protein from paper PMC6008586, “Analysis of transition state mimicry by tight binding aminothiazoline inhibitors provides insight into catalysis by human O-GlcNAcase” (Chemical Science, 2016).

What all share (assay): Kinetic analysis of hOGA-catalysed hydrolysis of fluorogenic substrates
Holding throughout (assay type): biochemical, human

Substrate in series [1]: CCNC(=O)N[C@H]1[C@H](Oc2ccc3c(C)cc(=O)oc3c2)O[C@H](CO)[C@@H](O)[C@@H]1O
As to conditions: other: substrate of hOGA, pH 7.4 PBS, 2.5% DMF, 37.0 °C. An excerpt:
(§1) Given the greater than 100-fold increase in potency we observe for the 2′-aminothiazoline inhibitors over their thiazoline counterparts and their structural resemblance to the oxazoline intermediate found along the reaction coordinate of hOGA, we wanted to assess whether incorporation of the 2′-amino group benefitted binding through serendipitous interactions, or whether the presence of the charge included in this class of inhibitors also made them TS analogues. We therefore turned to using the Bartlett LFER approach. […] We started from 4-methylumbelliferyl 2-amino-2-deoxy-β-D-glucopyranoside hydrochloride (16) as a common intermediate.[54] Per-O-acetylated urea substrates 17a–e were prepared by reacting 16 with the appropriate alkylisocyanate in the presence of triethylamine, followed by Zemplen de-O-acetylation. With this series of substrates (18a–e) in hand we determined the kcat/Km values governing their hOGA catalyzed hydrolysis (ESI Table S1 ^†). […] In contrast, we find no correlation between log Ki values for the inhibitors and log Km values for the series of substrates (Fig. 6B). […]
(§2) Biological evaluation: Gene expression and protein purification. hOGA was expressed and purified according to the previously described procedure by Macauley et al.[5] hOGA was dialyzed twice against PBS buffer after purification and its concentration determined using the Nanodrop2000. Human β-hexosaminidase was obtained from Micheal Tropak at the Hospital for Sick Children in Toronto, without further purification.
(§3) Kinetic analysis of hOGA. All assays were carried out in 96 well plates (Thermoscientific, FloroNunc, lot # 139825) in PBS pH 7.4 buffer (0.03% BSA) in triplicate at 37°C for 20 minutes. A continuous assay procedure was performed in which the reactions were initiated by the addition of 4-MUGlcNAc substrate (50 µL or 100 µL via a multi-channel […]
(§4) The excitation and emission were 350 and 445 nm, respectively. The amount of fluorogenic substrate liberated was quantitatively assessed by using a standard curve for 4-methylumbelliferone under identical buffer conditions. A total of 6-8 inhibitor concentrations were tested, […]
(§5) The hOGA concentrations in the assays ranged from 0.8 nM to 20 nM, depending on whether the Ki being determined was through classic Michaelis-Menten methods or the Morrison Ki fit. For full Ki […]
(§6) For the Morrison Ki analyses, only one substrate concentration was used (at the Km) since the method of inhibition was already known from analysis using the Line-weaver Burke plots. The representative hOGA Ki plots are summarized in Supplemental Figures S1, S2 and S3. Kinetic analysis of substrates 18a-e were performed in triplicate using pH 7.4 PBS buffer (0.03% BSA) containing 2.5% DMF, with varying enzyme concentrations. The Michaelis-Menten curves for substrates 18a-e with hOGA are summarized in Supplemental Figure S6 and the kinetic parameters are described in Supplemental Table S1. […]
(§7) # 139825) at pH 4.25 (50 mM citrate, 100 mM NaCl, 0.03% BSA) at 37°C in triplicate for 20 minutes. Enzymatic reactions were triggered by addition of substrate (20 µL or 15 µL) in a total volume of 45 or 40 µL. Reactions were quenched by the addition of a 4-fold excess (160 or 180 µL) of quenching buffer (200 mM glycine, pH 10.75) in order to […]

Substrate in series [2]: CNC(=O)N[C@H]1[C@H](Oc2ccc3c(C)cc(=O)oc3c2)O[C@H](CO)[C@@H](O)[C@@H]1O
As to conditions: other: estimated by non-linear regression, saturation of hOGA not observed, pH 7.4 PBS, 2.5% DMF, 37.0 °C.
Text: as §1, §2, §3, §4, §5, §6, §7

Substrate in series [3]: Cc1cc(=O)oc2cc(O[C@@H]3O[C@H](CO)[C@@H](O)[C@H](O)[C@H]3NC(N)=O)ccc12
As to conditions: other: estimated by non-linear regression, saturation of hOGA not observed, pH 7.4 PBS, 2.5% DMF, 37.0 °C.
Text: as §1, §2, §3, §4, §5, §6, §7

Substrate in series [4]: CCCCNC(=O)N[C@H]1[C@H](Oc2ccc3c(C)cc(=O)oc3c2)O[C@H](CO)[C@@H](O)[C@@H]1O
As to conditions: other: substrate of hOGA, pH 7.4 PBS, 2.5% DMF, 37.0 °C.
Text: as §1, §2, §3, §4, §5, §6, §7

Substrate in series [5]: CCCNC(=O)N[C@H]1[C@H](Oc2ccc3c(C)cc(=O)oc3c2)O[C@H](CO)[C@@H](O)[C@@H]1O
As to conditions: other: substrate of hOGA, pH 7.4 PBS, 2.5% DMF, 37.0 °C.
Text: as §1, §2, §3, §4, §5, §6, §7

B1: hOGA (Homo sapiens) (protein)
chain: MVQKESQATLEERESELSSNPAASAGASLEPPAAPAPGEDNPAGAGGAAVAGAAGGARRFLCGVVEGFYGRPWVMEQRKELFRRLQKWELNTYLYAPKDDYKHRMFWREMYSVEEAEQLMTLISAAREYEIEFIYAISPGLDITFSNPKEVSTLKRKLDQVSQFGCRSFALLFDDIDHNMCAADKEVFSSFAHAQVSITNEIYQYLGEPETFLFCPTEYCGTFCYPNVSQSPYLRTVGEKLLPGIEVLWTGPKVVSKEIPVESIEEVSKIIKRAPVIWDNIHANDYDQKRLFLGPYKGRSTELIPRLKGVLTNPNCEFEANYVAIHTLATWYKSNMNGVRKDVVMTDSEDSTVSIQIKLENEGSDEDIETDVLYSPQMALKLALTEWLQEFGVPHQYSSRQVAHSGAKASVVDGTPLVAAPSLNATTVVTTVYQEPIMSQGAALSGEPTTLTKEEEKKQPDEEPMDMVVEKQEETDHKNDNQILSEIVEAKMAEELKPMDTDKESIAESKSPEMSMQEDCISDIAPMQTDEQTNKEQFVPGPNEKPLYTAEPVTLEDLQLLADLFYLPYEHGPKGAQMLREFQWLRANSSVVSVNCKGKDSEKIEEWRSRAAKFEEMCGLVMGMFTRLSNCANRTILYDMYSYVWDIKSIMSMVKSFVQWLGCRSHSSAQFLIGDQEPWAFRGGLAGEFQRLLPIDGANDLFFQPPPLTPTSKVYTIRPYFPKDEASVYKICREMYDDGVGLPFQSQPDLIGDKLVGGLLSLSLDYCFVLEDEDGICGYALGTVDVTPFIKKCKISWIPFMQEKYTKPNGDKELSEAEKIMLSFHEEQEVLPETFLANFPSLIKMDIHKKVTDPSVAKSMMACLLSSLKANGSRGAFCEVRPDDKRILEFYSKLGCFEIAKMEGFPKDVVILGRSL
notes: made in house
For B1, the Km was 85 ± 20 µM in series [1]; 1825 ± 542 µM in series [2]; 1265 ± 259 µM in series [3]; 30 ± 3 µM in series [4]; 120 ± 11 µM in series [5].

As usually defined, the Km is the substrate concentration at which the rate is half of its maximum.
